Values of other authors in publication PMC7862380.

Experiments:
[1] = target: Met1-linked di-ubiquitin (Homo sapiens) (UniProt P0CG48)
[2] = target: Lys63-linked di-ubiquitin (Homo sapiens) (UniProt P0CG48)

OTULIN, sequence (Q96BN8 whole entry): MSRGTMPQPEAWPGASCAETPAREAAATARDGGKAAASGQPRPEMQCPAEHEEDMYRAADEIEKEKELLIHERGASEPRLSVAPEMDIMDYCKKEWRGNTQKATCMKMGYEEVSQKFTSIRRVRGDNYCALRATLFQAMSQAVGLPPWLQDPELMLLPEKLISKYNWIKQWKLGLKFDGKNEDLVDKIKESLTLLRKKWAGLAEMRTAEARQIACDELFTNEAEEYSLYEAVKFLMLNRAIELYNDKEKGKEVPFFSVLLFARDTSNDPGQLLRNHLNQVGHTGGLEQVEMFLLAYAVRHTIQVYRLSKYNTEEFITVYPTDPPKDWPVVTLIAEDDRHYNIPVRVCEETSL

Kd [1]: 0.12 µM
Kd [2]: 12 µM
Substance: OTULIN (from UniProt Q96BN8)
